Measurements from article PMC10215423, “The Diagnostic Potential of RNA Aptamers against the NS1 Protein of Dengue Virus Serotype 2”.

Target: NS1 (dengue virus serotype 2) (Dengue virus serotype 2, UniProt P29990 776-1127)
Experiment: filter binding
Settings: protein: commercial; chain copies: 2

NS1 (dengue virus serotype 2), sequence (P29990 776-1127): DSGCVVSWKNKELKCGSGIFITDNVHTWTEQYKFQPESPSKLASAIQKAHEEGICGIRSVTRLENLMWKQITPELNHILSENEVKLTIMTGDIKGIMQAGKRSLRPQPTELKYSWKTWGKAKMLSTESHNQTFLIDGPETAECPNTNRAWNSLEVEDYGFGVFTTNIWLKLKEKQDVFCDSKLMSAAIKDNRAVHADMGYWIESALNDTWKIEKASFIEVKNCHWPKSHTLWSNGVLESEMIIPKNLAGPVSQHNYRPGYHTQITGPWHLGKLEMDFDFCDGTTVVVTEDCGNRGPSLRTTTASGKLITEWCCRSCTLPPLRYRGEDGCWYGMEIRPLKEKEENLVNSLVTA

Row | Binder | Kd
1 | DENV-6 (structured_RNA) RNA: GGAGCUCAGCCUUCACUGCCGUAGUCGUAUCUCCAUUACCCAGAAUGGUGAUGCGCCGUGAAGAGCGGUUUAGGGAAUUGGCACCACGGUCGGAUCCAC | 41.4 ± 9.29 nM
2 | DENV-3 (structured_RNA) RNA: GGAGCUCAGCCUUCACUGCUUUGAUCUCGUGGGGGUGUGUCGCGGGAGACACCAUGGAAUAUAUGGCUGAUUUCAUGUGGGCACCACGGUCGGAUCCAC | 37.6 ± 10.3 nM
